Values belong to the binder of their own block, whether it stands above or below them.
Assays:
MBP-PUB22 = target: T1, MBP-PUB22 (Arabidopsis thaliana, UniProt Q9SVC6 1-435); test: pull-down; MBP-PUBs or MBP on amylose resin incubated with GST-PYLs for 1 h at room temperature in 20 mM Tris-HCl pH 7.2, 10 mM MgCl2, 2 mM DTT; washed five times; blot with anti-GST antibody; conditions: both partners purified
T1 construct: PUB22, plant U-box E3 ubiquitin ligase, Arabidopsis thaliana; Kept on the amylose resin for the pull-down; source: E. coli BL21 (DE3), purified (amylose resin); not shown: MBP, N-terminal, kept
T1 sequence (looked up): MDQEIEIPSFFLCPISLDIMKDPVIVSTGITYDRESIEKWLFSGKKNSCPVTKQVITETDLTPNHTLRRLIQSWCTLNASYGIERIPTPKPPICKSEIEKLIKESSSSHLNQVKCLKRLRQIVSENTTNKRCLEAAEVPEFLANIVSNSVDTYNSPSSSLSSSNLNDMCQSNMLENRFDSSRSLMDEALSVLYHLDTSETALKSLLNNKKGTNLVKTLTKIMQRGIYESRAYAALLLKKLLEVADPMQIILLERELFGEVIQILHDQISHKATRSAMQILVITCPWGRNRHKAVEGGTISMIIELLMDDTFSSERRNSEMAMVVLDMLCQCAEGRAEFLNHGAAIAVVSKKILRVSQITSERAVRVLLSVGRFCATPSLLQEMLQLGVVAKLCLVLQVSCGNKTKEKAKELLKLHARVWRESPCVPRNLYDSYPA

MBP-PUB23 = target: T2, MBP-PUB23 (Arabidopsis thaliana, UniProt Q84TG3 1-411); test: as above; conditions: both partners purified
T2 construct: PUB23, plant U-box E3 ubiquitin ligase, Arabidopsis thaliana; Kept on the amylose resin for the pull-down; source: E. coli BL21 (DE3), purified (amylose resin); not shown: MBP, N-terminal, kept
T2 sequence (looked up): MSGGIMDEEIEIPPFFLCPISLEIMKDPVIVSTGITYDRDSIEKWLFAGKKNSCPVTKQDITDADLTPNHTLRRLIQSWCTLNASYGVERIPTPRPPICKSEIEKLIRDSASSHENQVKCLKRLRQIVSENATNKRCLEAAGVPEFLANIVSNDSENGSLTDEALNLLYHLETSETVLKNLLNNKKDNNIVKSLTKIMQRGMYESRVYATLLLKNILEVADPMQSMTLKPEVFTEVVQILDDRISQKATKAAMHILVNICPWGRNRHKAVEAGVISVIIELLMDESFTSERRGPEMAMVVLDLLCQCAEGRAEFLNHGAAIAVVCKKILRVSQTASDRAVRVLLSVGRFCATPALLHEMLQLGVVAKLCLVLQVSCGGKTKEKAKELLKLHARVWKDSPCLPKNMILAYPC

binding result (MBP-PUB22): binds
B1: GST-PYL8 (receptor, Arabidopsis thaliana, UniProt Q9FGM1 1-188, looked up)
chain: MEANGIENLTNPNQEREFIRRHHKHELVDNQCSSTLVKHINAPVHIVWSLVRRFDQPQKYKPFISRCVVKGNMEIGTVREVDVKSGLPATRSTERLELLDDNEHILSIRIVGGDHRLKNYSSIISLHPETIEGRIGTLVIESFVVDVPEGNTKDETCYFVEALIKCNLKSLADISERLAVQDTTESRV
notes: PYL8, PYR/PYL/RCAR family ABA receptor, Arabidopsis thaliana; cDNA fused to the C terminus of the GST tag in pCold-GST; source: E. coli DE3 cells, purified (Glutathione Sepharose 4B); not shown: GST, N-terminal, kept

binding result (MBP-PUB23): binds
B2: GST-PYL9 (receptor, Arabidopsis thaliana, UniProt Q84MC7 1-187, looked up)
chain: MMDGVEGGTAMYGGLETVQYVRTHHQHLCRENQCTSALVKHIKAPLHLVWSLVRRFDQPQKYKPFVSRCTVIGDPEIGSLREVNVKSGLPATTSTERLELLDDEEHILGIKIIGGDHRLKNYSSILTVHPEIIEGRAGTMVIESFVVDVPQGNTKDETCYFVEALIRCNLKSLADVSERLASQDITQ
notes: PYL9, PYR/PYL/RCAR family ABA receptor, Arabidopsis thaliana; cDNA fused to the C terminus of the GST tag in pCold-GST between EcoRI and SalI; source: E. coli, purified (Glutathione Sepharose 4B, eluted with reduced glutathione); not shown: GST, N-terminal, kept

binding result (MBP-PUB22): binds
B3: GST-PYL7 (receptor, Arabidopsis thaliana, UniProt Q1ECF1 1-211, looked up)
chain: MEMIGGDDTDTEMYGALVTAQSLRLRHLHHCRENQCTSVLVKYIQAPVHLVWSLVRRFDQPQKYKPFISRCTVNGDPEIGCLREVNVKSGLPATTSTERLEQLDDEEHILGINIIGGDHRLKNYSSILTVHPEMIDGRSGTMVMESFVVDVPQGNTKDDTCYFVESLIKCNLKSLACVSERLAAQDITNSIATFCNASNGYREKNHTETNL
notes: PYL7, PYR/PYL/RCAR family ABA receptor, Arabidopsis thaliana; cDNA fused to the C terminus of the GST tag in pCold-GST; source: E. coli DE3 cells, purified (Glutathione Sepharose 4B); not shown: GST, N-terminal, kept

binding result (MBP-PUB22): binds
B4: GST-PYL5 (receptor, Arabidopsis thaliana, UniProt Q9FLB1 1-203, looked up)
chain: MRSPVQLQHGSDATNGFHTLQPHDQTDGPIKRVCLTRGMHVPEHVAMHHTHDVGPDQCCSSVVQMIHAPPESVWALVRRFDNPKVYKNFIRQCRIVQGDGLHVGDLREVMVVSGLPAVSSTERLEILDEERHVISFSVVGGDHRLKNYRSVTTLHASDDEGTVVVESYIVDVPPGNTEEETLSFVDTIVRCNLQSLARSTNRQ
notes: PYL5, PYR/PYL/RCAR family ABA receptor, Arabidopsis thaliana; cDNA fused to the C terminus of the GST tag in pCold-GST; source: E. coli DE3 cells, purified (Glutathione Sepharose 4B); not shown: GST, N-terminal, kept

Reference: publication PMC5618490, “Arabidopsis E3 Ubiquitin Ligases PUB22 and PUB23 Negatively Regulate Drought Tolerance by Targeting ABA Receptor PYL9 for Degradation” (International Journal of Molecular Sciences, 2017)
